From patent US20080200654A1 (KIRIN PHARMA, published 2008) come the findings set out here.

B1: 125Q54AAAA (antibody, V domains shown)
VH: EVQLLESGGGLVQPGGSLRLSCAASGFTFSSYAMSWVRQAPGKGLEWVSDISGSGGYTYYADSVKGRFTISRDNSKNTLYLQMNSLRAEDTAVYYCAKTGDGSGSYSPDSWGQGTLVTVSS
VL: DIQMTQSPSSLSASVGDRVTITCRASQGISRWLAWYQQKPEKAPKSLIYAASSLQSGVPSRFSGSGSGTDFTLTISSLQPEDFATYYCQQYNSYPYTFGQGTKLEIK
notes: Human IgG1 kappa antibody purified from the hybridoma (FERM BP-10105); also called 125Q54AAAA antibody
B2: 125R5AAAA (antibody, V domains shown)
VH: B1 VH with N77K, S110Y
VL: B1 VL with R31S
notes: Human IgG1 kappa antibody purified from the hybridoma (FERM BP-10103); also called 125R5AAAA antibody
B3: 125Q47BA (antibody, V domains shown)
VH: B1 VH with S35T, D101A
VL: B1 VL with R31S
notes: Human IgG1 kappa antibody purified from the hybridoma (FERM BP-10104); also called 125Q47BA antibody
B4: recN26 (antibody, V domains shown)
VH: QVQLVESGGGVVQPGRSLRLSCAASGFTFSHYGMHWVRQAPGKGLEWVALIWYDGSNKYYADSVKGRFTISRDNSKNTLYLQMNSLRAEDTAVYYCARDPLAAGTSYFDYWGQGTLVTVSS
VL: EIVLTQSPDFQSVTPKEKVTITCRASQSIGSSLHWYQQKPDQSPKLLIKYASQSFSGVPSRFSGSGSGTDFTLTINSLEAEDAAAYYCHQSSSLPFTFGPGTKVDIK
notes: also called recN26 antibody; N26 recombinant antibody
B5: rec263 (antibody, V domains shown)
VH: EVQLLESGGGLVQPGGSLRLSCAASGFTFSSYAMSWIRQAPGKGLEWVSAISASGGSTYYADSVKGRFTISRDNSKNTLYLQMNSLRAEDTAVYYCAKDRIVGATNYYYGMDVWGQGTTVTVSS
VL: DIQMTQSPPSVSASVGDRVTITCRASQGISSWLAWYQHKPGKAPKLLIYGASSLQSGVPSRFSGSGSGTDFTLTISSLQPEDFATYYCQQANSFPITFGQGTRLEIK
notes: also called rec263 antibody; rec263A1
B6: recM10 (antibody, V domains shown)
VH: QLQVQESGPGLVKPSETLSLICTVSGGSIRTSGYYWGWFRQPPGKGLEWIGTSHNSGSTYYNPSLKSRVTISVDTSKNQFSLKLNSVTAADTAVYYCARQGYDFKVNIDVWGQGTTVTVSS
VL: EIVLTQSPATLSLSPGERATLSCRASQSVSSYLAWYQQKPGQAPRLLIYDASNRATGIPARFSGSGSGTDFTLTISSLEPEDFAVYYCQQRSNWPLTFGGGTKVEIK
notes: also called recM10 antibody; M10 recombinant antibody
B7: recM165 (antibody, V domains shown)
VH: QVQLVESGGGVVQPGRSLRLSCAASGFTFSYYGMHWVRQAPGKGLEWVAVIWYDGSNKYYADSVKGRFTISRDNSKKTLYLQMNSLRAEDTAVYYCARDGHSSGWGDFQHWGQGTLVTVSS
VL: B6 VL with Y32S, V85I, L96P, G100Q
notes: also called recM165 antibody; M165 recombinant antibody
B8: recQ54 (antibody, V domains shown)
VH: B1 VH
VL: B1 VL
notes: also called recQ54 antibody; Q54 recombinant antibody

Changes are numbered by the printed parent chain.

The target in one assay is T1, A33 antigen (full-length human A33) (human, UniProt Q99795 22-319).
T1 construct: Class I cell membrane protein of the Ig superfamily; also called GPA33; human A33 antigen
T1 sequence: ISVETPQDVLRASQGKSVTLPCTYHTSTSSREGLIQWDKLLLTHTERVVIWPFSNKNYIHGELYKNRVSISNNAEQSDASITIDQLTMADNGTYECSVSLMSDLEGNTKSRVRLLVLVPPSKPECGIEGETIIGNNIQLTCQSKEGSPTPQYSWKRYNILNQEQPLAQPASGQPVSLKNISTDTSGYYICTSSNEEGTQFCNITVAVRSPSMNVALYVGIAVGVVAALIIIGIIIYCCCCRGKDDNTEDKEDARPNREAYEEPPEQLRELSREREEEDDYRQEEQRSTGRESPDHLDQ
Put plainly: FCM on LS174T cells; grade = ng/ml to reach half MFI 125 (+++ 10<=x<100, ++ 100<=x<1000, + 1000<=x<10000). From the text: (§1) The reactivity of each type of purified monoclonal antibody obtained in Example 8 to A33-antigen-expressing human colorectal cancer cell line COLO205 cells, LoVo cells (ATCC No. CCL-229), LS174T cells (ATCC No. CL-188), and NCI-H508 cells (ATCC No. CCL-253) was examined by FCM. Human colorectal cancer cell line HT-29 cells (ATCC No. HTB-38) expressing no A33 antigen were also examined as negative control cells. Each cell line was suspended at a concentration of 2×10⁶/ml in a PBS Staining Buffer (SB) containing 0.1% NaN₃ and 2% FCS. The cell suspension (50 μl/well) was dispensed in a 96-well round bottom plate (produced by Becton, Dickinson and Company). 50 μl of each type of purified monoclonal antibody (adjusted using SB at a concentration of 2000, 400, 80, or 16 ng/ml) was added, and then incubation was performed on ice for 30 minutes. A negative control was prepared depending on each subclass. Specifically, a human IgG1 antibody (produced by Sigma) was adjusted using SB at a concentration of 2000, 400, 80, or 16 ng/ml. 50 μl of the solution was added, followed by 30 minutes of incubation on ice. The resultant was washed twice with SB and then 50 μl of an FITC fluorescence-labeled goat anti-human IgG F(ab′)₂ antibody (produced by Southern Biotech), followed by 30 minutes of incubation on ice. The resultant was washed once with SB and then the resultant was suspended in 300 μl of a FACS buffer. The mean fluorescence intensity of each cell line was measured by FACS (FACScan produced by Becton, Dickinson and Company).
(§2) For COLO205 cells, the half value of the mean fluorescence intensity was determined to be 90. For LoVo cells, the half value of the mean fluorescence intensity was determined to be 25. […] When an antibody concentration required to reach such value was 10<=x<100 ng/ml, the reactivity was represented by +++, when the same was 100<=x<1000 ng/ml, the reactivity was represented by ++, and when the same was 1000<=x<10000 ng/ml, the reactivity was represented by +. When no binding was observed, the reactivity was represented by −.
B1: the “antibody concentration required to reach half value of mean fluorescence intensity” value lay within 100 to 1000 ng/mL.
For B2, the “antibody concentration required to reach half value of mean fluorescence intensity” value lay in the range of 100 to 1000 ng/mL.
Regarding B3, the “antibody concentration required to reach half value of mean fluorescence intensity” value is 100 to 1000 ng/mL.

A further assay has as its target T1, A33 antigen (full-length human A33). In words: FCM competition on COLO205 cells; antibody 1 µg/ml, competitor mouse anti-A33 antibody 100 µg/ml. How it is done:
(§3) Whether or not each type of purified monoclonal antibody obtained in Example 8 recognizes an epitope similar to that of the mouse anti-A33 antibody was examined by a competition test using FCM. The COLO205 cell line was suspended at a concentration of 2×10⁶/ml in a PBS Staining Buffer (SB) containing 0.1% NaN₃ and 2% FCS. The cell suspension (50 μl/well) was dispensed in a 96-well round bottom plate (produced by Becton, Dickinson and Company). The purified mouse anti-A33 antibody prepared in Example 1 was not added or added at a concentration of 100 μg/ml to the wells containing each type of purified monoclonal antibody (1 μg/ml and 50 μl), followed by 30 minutes of incubation on ice. A mouse negative control (containing no purified anti-A33 antibody added thereto) was prepared as follows. A human IgG1 antibody (produced by Sigma) was adjusted at a concentration of 1 μg/ml with SB and then 50 μl of the solution was added, followed by 30 minutes of incubation on ice. The resultant was washed twice with SB and then 50 μl of FITC fluorescence-labeled goat anti-human IgG F(ab′)₂ antibody (produced by IBL) was added, followed by 30 minutes of incubation on ice. The resultant was washed once with SB and then the resultant was suspended in 300 μl of a FACS buffer. The mean fluorescence intensity of each cell line was measured by FACS (FACScan produced by Becton, Dickinson and Company). The inhibition (%) between each type of purified monoclonal antibody and the mouse A33 antibody was calculated by the following formula: […]
On to B1, for which the “Inhibition (%)” value came to 46.5%.
Consider B2, for which the “Inhibition (%)” value came to 63.9%.
Still for that read-out and setting: the figure for B3 is 64.1%.

The target is the same in another assay. In words: FCM on COLO205 cells; grade = ng/ml to reach half MFI 90 (+++ 10<=x<100, ++ 100<=x<1000, + 1000<=x<10000).
Source text: as §1, §2
B1: the “antibody concentration required to reach half value of mean fluorescence intensity” value fell in the range of 10 to 100 ng/mL.
Consider B2, for which the “antibody concentration required to reach half value of mean fluorescence intensity” value is 10 to 100 ng/mL.
In the case of B3, the “antibody concentration required to reach half value of mean fluorescence intensity” value lay in the range of 10 to 100 ng/mL.

For the next assay the target is unchanged. Put plainly: FCM on NCI-H508 cells; grade = ng/ml to reach half MFI 175 (+++ 10<=x<100, ++ 100<=x<1000, + 1000<=x<10000).
On to B4, for which the “antibody concentration required to reach half value of the mean fluorescence intensity” value was 10 to 100 ng/mL.
For B5, the “antibody concentration required to reach half value of the mean fluorescence intensity” value lay in the range of 100 to 1000 ng/mL.
Turning to B6, the “antibody concentration required to reach half value of the mean fluorescence intensity” value lay within 10 to 100 ng/mL.
Turning to B7, the “antibody concentration required to reach half value of the mean fluorescence intensity” value is 100 to 1000 ng/mL.
B8: the “antibody concentration required to reach half value of the mean fluorescence intensity” value was in the range of 10 to 100 ng/mL.

For a further assay the target is unchanged. In words: FCM competition on COLO205 cells as in Example 10; competitor mouse anti-A33 antibody. How it is done: as §3
As for B4, the “Inhibition (%)” value was determined as 95.3%.
Consider B5, for which the “Inhibition (%)” value is 15.3%.
Still for that read-out and setting: as for B6, the figure is 0.2%; as for B7, 93.4%.
As to B8, the “Inhibition (%)” value turned out to be 44.6%.

The next assay has the same target. Put plainly: FCM on NCI-H508 cells; grade = ng/ml to reach half MFI 125 (+++ 10<=x<100, ++ 100<=x<1000, + 1000<=x<10000).
Source text: as §1, §2
Regarding B1, the “antibody concentration required to reach half value of mean fluorescence intensity” value was 100 to 1000 ng/mL.
On the same count and under the same terms, the figure for B2 is 100 to 1000 ng/mL; for B3 it is 100 to 1000 ng/mL.

For the next assay the target is unchanged. Put plainly: FCM on LS174T cells; grade = ng/ml to reach half MFI 100 (+++ 10<=x<100, ++ 100<=x<1000, + 1000<=x<10000).
Regarding B4, the “antibody concentration required to reach half value of the mean fluorescence intensity” value lay in the range of 10 to 100 ng/mL.
Take B5: the “antibody concentration required to reach half value of the mean fluorescence intensity” value fell in the range of 100 to 1000 ng/mL.
Consider B6, for which the “antibody concentration required to reach half value of the mean fluorescence intensity” value lay in the range of 10 to 100 ng/mL.
Still for that read-out and setting: as for B7, the figure is 100 to 1000 ng/mL; as for B8, 10 to 100 ng/mL.

The target is the same in a further assay. Put plainly: FCM on LoVo cells; grade = ng/ml to reach half MFI 25 (+++ 10<=x<100, ++ 100<=x<1000, + 1000<=x<10000).
Source text: as §1, §2
Consider B1, for which the “antibody concentration required to reach half value of mean fluorescence intensity” value is 10 to 100 ng/mL.
For the molecule B2, the “antibody concentration required to reach half value of mean fluorescence intensity” value lay within 10 to 100 ng/mL.
For B3, the “antibody concentration required to reach half value of mean fluorescence intensity” value lay within 10 to 100 ng/mL.

Another assay has the same target. In words: FCM on COLO205 cells; grade = ng/ml to reach half MFI 45 (+++ 10<=x<100, ++ 100<=x<1000, + 1000<=x<10000).
Take B4: the “antibody concentration required to reach half value of the mean fluorescence intensity” value is 100 to 1000 ng/mL.
Turning to B5, the “antibody concentration required to reach half value of the mean fluorescence intensity” value fell in the range of 100 to 1000 ng/mL.
Take B6: the “antibody concentration required to reach half value of the mean fluorescence intensity” value lay within 10 to 100 ng/mL.
Turning to B7, the “antibody concentration required to reach half value of the mean fluorescence intensity” value fell in the range of 100 to 1000 ng/mL.
On the same count and under the same terms, the figure for B8 is 10 to 100 ng/mL.
